# From the nanobody polyreactivity screen of Harvey et al. (2022)
# Experiment: yeast display, Sf9 membrane polyspecificity reagent, FACS + sequencing; frameworks hold sequencing errors
# In short: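 Nanobodies came from a synthetic yeast display library in Saccharomyces cerevisiae BJ5465, induced with galactose for 36–48 hours and stained for 1 hour at 4 °C with 10% biotinylated, detergent-solubilized Sf9 membrane reagent. Cells were enriched on streptavidin microbeads and then FACS-sorted, with low and high (top ~1%) gates set on anti-HA fluorescence for expression and streptavidin fluorescence for reagent binding. Each polyreactivity label reflects the gate a clone came from. Genes were amplified by colony PCR, sequenced by MiSeq 2 × 250 and filtered by CDR length.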
row,Sequence,polyreactivity (PSR sort gate)
1,QVQLVESAGGLVQAGGSLRLSCAPSGSTFNYYAMGWYRQAPGKESELGAAIDWSGGSTYYADSVKGRFTISRDNAKNTVYLQMNSLKPDDTAVYYCAARTYDYSYGSFDYWGQGTQVTVSS,low polyreactivity
2,QVQLVESAGGLVQAGGSLRLSCDASGRTFPYNAMGWYRQAHGKERELVAGITGGGSTYYADSVKGRFTISRDNAKNNVYLQMNSLKPEDTAVYYCAADRYFLYATYPDVEFNYWGQGTQVTVSS,high polyreactivity
3,QVQLVESAGGLVQAGGSLRLSCDASGSIFTTNAMGWYRQAPGKERELVAAITSTAGSTYYADSVKGRFKISRDNAKNTVYLQMNSLKPEDTAVYYCAATYNVGVKAWYDYWGQGSQVTVSS,high polyreactivity
4,QVQLVESAGGLVQAGGSLRLSCDASVSTFGYYAMGWYRQAPGKERELVAVIRRGGSTNYADSVKGRFTISRDNAKNTVYLQMNSLKPEDTAVYYCAKSQRGTVYSYYYWGQGNQVTVSS,high polyreactivity
5,QVQLVESAGGLVQAGGSLRLSCGASGRIFYYNTMGWYRQAPGKERELVAAITTNGGSTYYADSVKGRFTISRDNAKNTVYLQMYSLKPEDTAVYYCNRDRYPYYYAYNYWGQGTQVTVSS,low polyreactivity
6,QVQLVESAGGLVQAGGSLRLSCPASGSTFTFNAMGWYRQAPGKERELVADITSGGRTNYADSVKGRFTISRDNAKNTVYLQMNSLKPEDTAVYYCAARWWAHEYPGYDSWGQGTQVTVSS,low polyreactivity
7,QVQLVESAGGLVQAGGSLRLSFAASGRISGRYAMRWYRQAPGKEREVVAAITSRGGRTYYADSVKGRFTISRDNAKNTVYLQMNSLKPEDTAVYYCAKDAGSRTVREFGYWGQGTHVTVSS,high polyreactivity
8,QVQLVESAGGLVQAGGSLRLSSAASGIIFSEYAMGWYRPAPGKERELVAAISKSGGRTYYADSVKGRFTISGVNAKNTVDLQMNSLKPEDTAVYYCAARHAPILGDHGMKYWGQGTQVTVSS,high polyreactivity
9,QVQLVESAGGLVQAGGSLRLSSAASGRTFIVYAMGWYRQARGKERELVAGITRGSTNYADSVKGRFTISRDNAKNTVYVQMNCLKPEDTAVYYCAARWQWLNGYYYWGQGTQVTVSS,high polyreactivity
10,QVQLVESAGGLVQAGGSLSIICAASGFTFYGYTMGWYRQAPGKERELVAAITSDGDTNYADSVKGRFTISRDNAKNTVYLQMISLKPVDTAVYYCNADPGYYFYWWPGDYWGQGTQLTVSS,low polyreactivity
11,QVQLVESAGGLVQAGGSLSLICAASGFIFDSYAMGWSRQAPGKERELVAAIDKRGGRTYYADSEKGRFTISRDNAKNTVYLQMNSLKPEDTAVYFCAADDYTGYGYWGQGTQVTVSS,high polyreactivity
12,QVQLVESAGGLVQAGGSLSLSCAASGSIFWSYAMGWYRQAPGKERELVAVINWSGGSTYYADSVKGRFTISRDNAKNTVYLQMNSLKPEDTAVYYCNKDLGPTKRPFTFDYWGQGTQVTVSS,low polyreactivity
13,QVQLVESAGGLVQAGGSLSLSCAATGFIFYYNTMGWYRQAPGKERELVAAINSGGSTYYADSVKGRFTISRDNAKNTVYLQMNSLKPEDTAVYYCAKRYAVSSRYYYWGQGTQVTVSS,high polyreactivity
14,QVQLVESAGGLVQARGSLRLSCAASGRIFDVNAMGWYRQAPGKERELVAAISSGGNTKYADSVKGRFTISRDNAKNTVYLQMNSLKPEDTAVYYCNADGKAGGDSDYWGQGTQVTVSS,low polyreactivity
15,QVQLVESAGGLVQARGSLRLSCAASGRIFVPYAMGWYRQAPGKERELVAVISRGGSTYYADSVKGRFTISRDNAKNTVYLQMNSLKPEDTAVYYCAVASKLALQPWYDYWGQGTQVTVSS,high polyreactivity
16,QVQLVESAGGLVQEGGSLSLSCAASGITLTIYVMGWYRQAPGKEREMVAAISTSGGSTYYADSVKGRFTISRDNAKNTVYLQMNSLKQEDTAVYYCNATPLRRYYGRYLMDYWGQGTQVTVSS,high polyreactivity
17,QVQLVESAGGLVQSGGSLRLSCPASGRIFYLNAQGWYRQAPGKERELVAAITWSGGRTYYADSVKGRFTISRDYAKNSVYLQMNSLKPEDTAVYYCAAVPRPGPNTVLTPYGYWGQGTQVTVSS,high polyreactivity
18,QVQLVESAVGLVQAGGSLRLSSAASGFTFPLYAMGWYRQEHGKEREFVPVISRSGGSTYYADSVKGRFTISRDNAKNTVYLQMNSLKPEDTAVYYCAARLVPRSPERGNYDYWGQGTQVTVSS,high polyreactivity
19,QVQLVESCAGLVQAGGSLRLTCADSGSIFDFNAMGWYRQVPGKEREWVAAITSGGSTNYADSVKGRFTNSRDNAKNTVYLQMNSLKPEDTAVYYCAARPARGASQGGYVRPWWYDSWGQGTQVTVSS,low polyreactivity
20,QVQLVESCGALVQAGGSLLLSCAASGRTFVVNDMGWYRHAPWKERELVATINVSGGSTSYEDSVKGRFTISRDNGKYTVYLQMTSLKPEDTAVYYCNVDTYVEYPHDYWGQGTQVTVSS,low polyreactivity
21,QVQLVESCGCLVQAGGSLRLSCAASGSTFRKYAMGWYRQAPGKEREFVAAITWSTGTTYYADSVKGRFTISRDNAKNTVYLQMNSLKPEDTAVYYCAADSQPPHELYESIEHESWGQGTQVTVSS,low polyreactivity

row,Sequence,polyreactivity (PSR sort gate)
1,QVQLVESCGGFVQAGGSLSLSCAASGSIYGRYGMGWYIQAPGKERELVAAITSGTRTNYADSVKGRFTISRDNAKNTVYLQMKSLKPEDTAVYYCYALRLRGNYEYGYWGQGTQVTVSS,low polyreactivity
2,QVQLVESCGGIVQAGGSHRLSCAASGSIFAWYAMGWYRQAPGKERELVAAITYTGGRTYYADSVKGRFTISRDIAKYTVYLQMISLNPEDTAVFYCAKDGPATVRRGYDYWGQGTQVTVSS,high polyreactivity
3,QVQLVESCGGLDQAGGSLRLSCAASALTFVDNAMGWYRQAPGKERELVAAISYNGGSTYYADSVKGRFTISRDNAKNTVYLQMNCLKPEDTAVYYCAADISVGRYGDMDYWGQGTLVTVSS,low polyreactivity
4,QVQLVESCGGLGQAGGSLRLSCSASGRIFGTYAKGLYRKAPGKERELLASISYSDGSTYADSVKGRFTISRDNAKNTVYLQMNSLKPEDTSVYYCAADVYYYAQSEDGYWGQGTQVTVSS,low polyreactivity
5,QVQLVESCGGLLQAGGSLRLSCAASGRTFTQYAMGCYRQAPGKERELVAAISWSDDITYYADSVKGRCTISRDIAQYTVYLQMNSLKPEDTAVYYCATEGYWGYDYDYWGQGTQVTVSS,high polyreactivity
6,QVQLVESCGGLVHAGGSLRLSCAASGRIIIFYAMGWYRQAPGKERELVASITSGASTYADSVKGRFTISRDNAKNTVYLQLNSLKPEDTAVYYCAKDYLDATPWFTWPTYSEFDYWGQGTQVTVSS,low polyreactivity
7,QVQLVESCGGLVPAGGSLRLSCAASGSTFRYAMGWYRQTPGKERELVDAITRSGGSTYYAYSVKVRFTISRDKAKNTVYLQMNSLKPEDTAVYYCNARRGKGKSYGDYGYGYWGQGTQVTVSS,high polyreactivity
8,QVQLVESCGGLVQAGCSLRLSCAASGSIRYYPMGWYRQAPGKERELVAGITRNGGSTYYADSVKGRFTISRDNAKITVYLQMNSLKPEDTAVYYFAAGFTTRRGEYNYWGQGTQVTVSS,high polyreactivity
9,QVQLVESCGGLVQAGGSLRLICAASGITFYRNAMGGYRQAPWKERELVAAITRRGGSTYYADSVKGRFTISRDNAKNTVYCQMNIVKPEDTAVYYCAAQDATRGDGYWGQGTQVTVSS,high polyreactivity
10,QVQLVESCGGLVQAGGSLRLSCAASAWYAIGWYRQAPGKEREFVAAITFSGSSTYYADSVKGRFTISRDNAKNTVYLQMNSLKPEDTAVYYCNADWWEWGQGTQVTVSS,low polyreactivity
11,QVQLVESCGGLVQAGGSLRLSCAASGFTFGSYDMGWYRQAPGKERELVAAITWSGGSTYYADSVKGRFTISRDNAKNTVYLQMNSLKPEDTAVYYCNAYKFHMNYWGQGTQVTVSS,high polyreactivity
12,QVQLVESCGGLVQAGGSLRLSCAASGIIFPPYAMGWYRPAPGKERELVAAITRSGASTYYADSVKGRFTISRDNAKNTVYLQMNSLKPEDTAVYYCAVGVPGGYWKDYYWGQGTQVTVSS,high polyreactivity
13,QVQLVESCGGLVQAGGSLRLSCAASGITFYGYAMGWYIQAPGKERELVARITISGRTNYADYVKGRFTISRDNAKNTVYLQMNSLKPEDTAVYYCATLVHWSYPYYYWGQGTQVTVSS,high polyreactivity
14,QVQLVESCGGLVQAGGSLRLSCAASGLTFPKYAMGWYRQAPGKERELVARISYSGASTYYADSVKGRFTISRDNAKNTVYLQMNSLKPEDTAVYYCAARIYRVYYVHFAPYYYWGQGTQVTVSS,high polyreactivity
15,QVQLVESCGGLVQAGGSLRLSCAASGRIFLYNAMGWYRQAPGKERELVAVISRNGGSTYYADSVKGRFTISRDNAKNTVYLQMNSLKPEDTAVYYCNRYDRLAGRTTYDYWGQGSQVTVSS,high polyreactivity
16,QVQLVESCGGLVQAGGSLRLSCAASGRIFQTYAMGWYRQAPGKERELVASISWSGGSTYYADSVKGRFTILRDNAKNTVYLQMNSLKPEDTAVYYCAAVYYSTDYYFWYDYWGQGTQVTVSS,low polyreactivity
17,QVQLVESCGGLVQAGGSLRLSCAASGRIFRWYAMGWYRQAPGKERELVARITSGGSTNYADSVKGRFTISRDNAKNTVYLQMNSLKPEDTAVYYCARDWGKSEYEYWGQGTQVTVSS,high polyreactivity
18,QVQLVESCGGLVQAGGSLRLSCAASGRILSSYAMGGNRQAPGKERELVADITQRGGTTYYADSVKGRFSISRDNAKNTVYLQMNRLKPEDTAVYYCNAKSYRSYGGRGGVEYDYCGQGTQVTVSS,low polyreactivity
19,QVQLVESCGGLVQAGGSLRLSCAASGRTFRSYTMGWYRQAPGKERELVASIRTSSGCTYYADSVKGRFTISRDNAKNSVYLKMNSLKPEDTAVYYCAKTLLYPWFRTVAVDYWGQGTQVTVSS,low polyreactivity
20,QVQLVESCGGLVQAGGSLRLSCAASGSIFRYNAMGWYRQAPWKEWELVAAIRSGSGTNYADSVKGRFTISRDNAKNTVFLQMNSLKPEDTAVYYCNAQPWYRTKYDYWGQGNQVTVSS,low polyreactivity
